T1: mPAL cDNA clone from the yeast two-hybrid screen, fused to the GAL4 transcription activation domain (yeast; mouse, UniProt Q9Z179 16-668)
T1 construct: Eleven clones were isolated (3 from T-cell, 8 from embryo library); As an in-frame fusion it may start at residue 11; also called GAL4-cDNA fusion; GAL4-TA fusion
T1 sequence: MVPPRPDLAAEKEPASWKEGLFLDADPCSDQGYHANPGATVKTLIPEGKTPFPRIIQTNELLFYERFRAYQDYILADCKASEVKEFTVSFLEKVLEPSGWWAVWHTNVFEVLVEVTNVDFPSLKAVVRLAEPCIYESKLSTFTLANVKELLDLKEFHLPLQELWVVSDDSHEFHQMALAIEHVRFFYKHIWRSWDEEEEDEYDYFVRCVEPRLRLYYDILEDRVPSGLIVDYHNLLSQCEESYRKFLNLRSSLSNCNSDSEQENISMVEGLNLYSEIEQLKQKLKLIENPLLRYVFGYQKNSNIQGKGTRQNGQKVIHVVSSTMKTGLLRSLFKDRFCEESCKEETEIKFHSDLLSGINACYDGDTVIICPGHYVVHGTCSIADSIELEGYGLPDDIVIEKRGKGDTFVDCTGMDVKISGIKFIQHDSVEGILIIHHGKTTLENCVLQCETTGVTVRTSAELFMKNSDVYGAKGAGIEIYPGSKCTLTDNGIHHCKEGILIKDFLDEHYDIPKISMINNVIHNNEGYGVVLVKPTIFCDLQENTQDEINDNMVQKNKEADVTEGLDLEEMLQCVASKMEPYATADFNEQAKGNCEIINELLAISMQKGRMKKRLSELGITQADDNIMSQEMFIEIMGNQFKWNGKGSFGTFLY

T2: mPAL (amino acids 11 to 648) expressed in 293T cells from pcDNA3.1-mPAL (mouse, UniProt Q9Z179 11-648)
T2 sequence: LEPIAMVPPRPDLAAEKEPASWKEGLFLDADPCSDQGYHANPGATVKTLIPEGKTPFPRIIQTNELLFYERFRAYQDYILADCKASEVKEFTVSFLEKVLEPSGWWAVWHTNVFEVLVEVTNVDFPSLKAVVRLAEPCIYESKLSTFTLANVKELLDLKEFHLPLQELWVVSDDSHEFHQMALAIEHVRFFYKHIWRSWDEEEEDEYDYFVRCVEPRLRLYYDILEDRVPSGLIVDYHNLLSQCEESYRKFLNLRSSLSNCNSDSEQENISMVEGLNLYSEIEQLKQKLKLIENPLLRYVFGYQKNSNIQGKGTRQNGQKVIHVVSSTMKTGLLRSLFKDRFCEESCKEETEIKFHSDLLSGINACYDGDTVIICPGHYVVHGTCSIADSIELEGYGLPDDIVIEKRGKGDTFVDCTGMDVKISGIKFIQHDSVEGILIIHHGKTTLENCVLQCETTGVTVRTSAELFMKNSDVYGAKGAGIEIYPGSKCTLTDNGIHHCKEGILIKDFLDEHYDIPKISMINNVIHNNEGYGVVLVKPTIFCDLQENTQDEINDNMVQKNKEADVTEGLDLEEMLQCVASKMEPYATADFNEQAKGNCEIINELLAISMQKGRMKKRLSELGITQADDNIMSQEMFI


Tests used:
[1] = target: T1, mPAL cDNA clone from the yeast …; assay: yeast two-hybrid
[2] = target: T2, mPAL (amino acids 11 to 648) expressed …; assay: GST pull-down from 293T-mPAL lysate, anti-mPAL immunoblot
Description: To examine the specificity of the mPAL-Shc SH2 interaction, a series of GST-SH2 fusion proteins generated from several signal transduction molecules were tested for their ability to precipitate mPAL. A panel of GST-SH2 fusion proteins generated from several signal transduction molecules (Shc PTB domain, Blaikie et al., *J. Biol. Chem.* 269:23031–32034(1994), Shc SH2 domain, Pellici et al., *Cell* 70:93–104 (1992), Grb2 SH2 domain, Rozakis-Adcock et al., *Nature* 360:689–692 (1992), Vav SH2 domain Margolis et al., *Nature* 356: 71–74 (1992), N-terminal SH2 domain of ras-GAP, N-terminal SH2 domain (p85-N) and C-terminal SH2 domain (p85-C) of p85 subunit of PI-3 kinase, N-terminal SH2 domain (PLCγ-N), and C-terminal SH2 domain (PLCγ-C) of phospholipase C-γ1 Anderson et al., *Science* 250:979–982 (1992), Ellis et al., *Mol. Cell Biol.* 12:991–997(1992), and Nck SH2 domain, Lehman et al., *Nucl. Acids Res.* 18:1048 (1990), were immobilized on glutathione-Sepharose beads.

Row | binding result [1] | binding result [2] | Binder
1 | no binding | – | PTB domain of p52 Shc (yeast two-hybrid construct) (other, UniProt P29353-2 1-209, looked up, domain: PTB; Construct is not described) MNKLSGGGGRRTRVEGGQLGGEEWTRHGSFVNKPTRGWLHPNDKVMGPGVSYLVRYMGCVEVLQSMRALDFNTRTQVTREAISLVCEAVPGAKGATRRRKPCSRPLSSILGRSNLKFAGMPITLTVSTSSLNLMAADCKQIIANHHMQSISFASGGDPDTAEYVAYVAKDPVNQRACHILECPEGLAQDVISTIGQAFELRFKQYLRNP
2 | no binding | – | CH1 domain of p52 Shc (yeast two-hybrid construct) (other, UniProt P29353-2 230-377, looked up, domain: CH1; Construct is not described) EEEEPPDHQYYNDFPGKEPPLGGVVDMRLREGAAPGAARPTAPNAQTPSHLGATLPVGQPVGGDPEVRKQMPPPPPCPGRELFDDPSYVNVQNLDKARQAVGGAGPPNPAINGSAPRDLFDMKPFEDALRVPPPPQSVSMAEQLRGEP
3 | – | no binding | GST-Nck SH2 (amino acids 281-377 of human Nck) (other, UniProt P16333 281-377, looked up, range 281-377; not shown: glutathione S-transferase (GST)) PWYYGKVTRHQAEMALNERGHEGDFLIRDSESSPNDFSVSLKAQGKNKHFKVQLKETVYCIGQRKFSTMEELVEHYKKAPIFTSEQGEKLYLVKHLS

— patent US6399747 (Amgen, dated 2002)
